This is an account of results in patent US20180282393A1 (IMMATICS BIOTECHNOLOGIES, published 2018).

Bounds are passed on as bounds.

This test addresses T1, HLA-A*02:01 (human).
T1 construct: Captured on streptavidin plates and detected with anti-b2m; also called peptide-receptive MHC molecules; MHC class I
Nature of the test: UV-ligand exchange, anti-b2m ELISA; peptide exchange yield grade (+ >=10%, ++ >=20%, +++ >=50, ++++ >=75%). The source says: Candidate peptides for T cell based therapies according to the present invention were further tested for their MHC binding capacity (affinity). The individual peptide-MHC complexes were produced by UV-ligand exchange, where a UV-sensitive peptide is cleaved upon UV-irradiation, and exchanged with the peptide of interest as analyzed. Only peptide candidates that can effectively bind and stabilize the peptide-receptive MHC molecules prevent dissociation of the MHC complexes. To determine the yield of the exchange reaction, an ELISA was performed based on the detection of the light chain (β2m) of stabilized MHC complexes. The assay was performed as generally described in Rodenko et al. (Rodenko et al., 2006).
96 well MAXISorp plates (NUNC) were coated over night with 2 ug/ml streptavidin in PBS at room temperature, washed 4× and blocked for 1 h at 37° C. in 2% BSA containing blocking buffer. Refolded HLA-A*02:01/MLA-001 monomers served as standards, covering the range of 15-500 ng/ml. Peptide-MHC monomers of the UV-exchange reaction were diluted 100 fold in blocking buffer. Samples were incubated for 1 h at 37° C., washed four times, incubated with 2 ug/ml HRP conjugated anti-β2m for 1 h at 37° C., washed again and detected with TMB solution that is stopped with […]. Absorption was measured at 450 nm. Candidate peptides that show a high exchange yield (preferably higher than 50%, most preferred higher than 75%) are generally preferred for a generation and production of antibodies or fragments thereof, and/or T cell receptors or fragments thereof, as they show sufficient avidity to the MHC molecules and prevent dissociation of the MHC complexes.

KITEAIQYV registered a peptide exchange yield of 50 to 75%.
Under GLLVGSEKVTM stands 50 to 75%.
To AVLPHVDQV belongs 50 to 75%.
To FVLDTSESV belongs 50 to 75%; to SMNGGVFAV, 20 to 50%.
As to FLDNGPKTI, the peptide exchange yield lay within 50 to 75%.
Under SLAESLDQA stands 50 to 75%; under GQDVGRYQV, 20 to 50%.
With SLADSLYNL, the peptide exchange yield lay within 20 to 50%.
To SILRHVAEV belongs 20 to 50%.
Regarding ALQEALENA, the peptide exchange yield was 20 to 50%.
To KVANIIAEV belongs 20 to 50%; to ILASLATSV, 50 to 75%.
To SLDENSDQQV belongs 50 to 75%; to HLLGHLEQA, 50 to 75%; to PAVLQSSGLYSL, 20 to 50%.
Under SIYEYYHAL stands 50 to 75%.
As to KLIDDVHRL, the peptide exchange yield was not below 75%.
In turn, ALADGVVSQA gave a peptide exchange yield of 50 to 75%.
For HLIAEIHTA (also called PTHL-001), the peptide exchange yield lay in the range of 50 to 75%.
On to KVADYIPQL, for which the peptide exchange yield was in the range of 50 to 75%.
To ASDPILYRPVAV belongs 50 to 75%; to FLPPAQVTV, 20 to 50%.
To NIIELVHQV belongs not below 75%; to VLINTSVTL, 50 to 75%; to VLVPYEPPQV, 20 to 50%.
Under ALLDGGSEAYWRV stands 50 to 75%.
